Changes are numbered by the printed parent chain. Read-outs that look alike come from different tables or passages of the source.
T1: ST2 on the effector cells (KU812, KU812/NF-κB-1#, HUVEC, HMC-1) (human, UniProt Q01638 19-556)
T1 sequence (looked up): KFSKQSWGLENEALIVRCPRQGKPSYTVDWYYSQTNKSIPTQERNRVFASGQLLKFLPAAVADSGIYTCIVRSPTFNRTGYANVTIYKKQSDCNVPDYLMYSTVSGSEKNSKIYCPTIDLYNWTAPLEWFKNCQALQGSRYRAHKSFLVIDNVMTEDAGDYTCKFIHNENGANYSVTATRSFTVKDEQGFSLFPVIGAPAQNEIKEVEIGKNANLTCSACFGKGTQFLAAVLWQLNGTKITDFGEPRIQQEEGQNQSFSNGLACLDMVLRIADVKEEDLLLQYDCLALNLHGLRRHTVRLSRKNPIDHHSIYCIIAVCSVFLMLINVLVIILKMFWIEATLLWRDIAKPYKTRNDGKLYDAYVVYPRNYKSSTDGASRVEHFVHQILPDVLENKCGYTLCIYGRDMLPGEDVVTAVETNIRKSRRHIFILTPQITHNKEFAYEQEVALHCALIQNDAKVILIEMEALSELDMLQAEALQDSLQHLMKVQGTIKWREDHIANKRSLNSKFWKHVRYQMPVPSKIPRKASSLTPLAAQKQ

T2: Human ST2-his (human, UniProt Q01638-2 19-328, limits assumed)
T2 construct: Expressed in CHO-K1; The printed range starts at Met1; also called human ST2 fused with a 6-histidine tag at the C-terminus
T2 sequence: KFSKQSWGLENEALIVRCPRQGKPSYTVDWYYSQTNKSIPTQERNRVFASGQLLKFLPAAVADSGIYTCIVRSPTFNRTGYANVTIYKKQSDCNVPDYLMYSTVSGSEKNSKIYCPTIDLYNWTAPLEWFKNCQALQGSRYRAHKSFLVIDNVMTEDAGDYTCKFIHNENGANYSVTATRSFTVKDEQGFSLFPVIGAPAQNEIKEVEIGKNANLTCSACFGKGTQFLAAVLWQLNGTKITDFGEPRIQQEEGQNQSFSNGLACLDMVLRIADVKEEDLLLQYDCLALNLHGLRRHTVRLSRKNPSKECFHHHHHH

B1: 5888-153-H2L0 (antibody, human IgG4 S228P, kappa, V domains shown)
VH: QVQLVQSGAEVKKPGASVKVSCKASGYTFTDYELHWVRQAPGQGLEWMGTIDPETGDTVYNQKFKARVTMTADKSTSTAYMELSSLRSEDTAVYYCTRAFYNDYDEGFAYWGQGTLVTVSS
VL: EIVLTQSPATLSLSPGERATLSCSVSSSVSYMHWYQQKPGQAPRLLIYDTSKLASGIPARFSGSGSGTDFTLTISSLEPEDFAVYYCQQWNSSPLTFGGGTKVEIKR
B2: 5888-153-H3L1 (antibody, human IgG4 S228P, kappa, V domains shown)
VH: B1 VH with E106D, G107A
VL: B1 VL with L4M, L45R, F70Y, F82A
notes: Humanized antibody
B3: 5888-153-H2L1 (antibody, human IgG4 S228P, kappa, V domains shown)
VH: B1 VH
VL: B1 VL with L4M, L45R, F70Y, F82A
B4: 5888-153-H3L2 (antibody, human IgG4 S228P, kappa, V domains shown)
VH: B1 VH with E106D, G107A
VL: B1 VL with L4M, L45R, F70Y, F82A, S92T
notes: Humanized antibody
B5: 5888-153-H0L1 (antibody, human IgG4 S228P, kappa, V domains shown)
VH: B1 VH with A72R, K74T, A79V, T97A, E106D
VL: B1 VL with L4M, L45R, F70Y, F82A
notes: Humanized antibody
B6: 5888-379-H2L2 (antibody, human IgG4 S228P, kappa, V domains shown)
VH: QVQLVQSGAEVKKPGASVKVSCKASGYTFINYGMNWVRQAPGQRLEWMGWINTYIGEPTYGDNFKGRVTITRDTSASTAYMELSSLRSEDTAVYYCAREGDAFAYWGQGTLVTVSS
VL: DIVMTQSPDSLAVSLGERATINCKSSQSLLYSGNQNNYLAWYQQKPGQPPKLLIYGASTRESGVPDRFSGSGSGTDFTLTISSLQAEDVAVYYCQNDHSYPYTFGGGTKVEIKR
notes: Humanized antibody

How the values were obtained:
[1] = molecular target: Human ST2-fc (human) (UniProt Q01638); assay: competition ELISA, coated ST2-fc, competitor IL33-his
[2] = molecular target: Human ST2-fc (human) (UniProt Q01638); assay: competition ELISA: human ST2-fc coated, antibody titrated in a mixture with human IL33-his (blocked ligand), bound IL33-his detected with an anti-His secondary antibody, OD450-OD650 [continued), 9-5]
[3] = molecular target: Human ST2-fc (human) (UniProt Q01638); assay: competition ELISA: human ST2-fc coated, antibody titrated in a mixture with human IL33-his (blocked ligand), bound IL33-his detected with an anti-His secondary antibody, OD450-OD650 [continued), 9-7]
[4] = molecular target: Human ST2-fc (human) (UniProt Q01638); assay: competition ELISA: human ST2-fc coated, antibody titrated in a mixture with human IL33-his (blocked ligand), bound IL33-his detected with an anti-His secondary antibody, OD450-OD650 [continued), 9-4]
[5] = molecular target: T1, ST2 on the effector cells (KU812, …); assay: cell-based or functional assay
[6] = molecular target: T1, ST2 on the effector cells (KU812, …); assay: cell-based or functional assay; remark: listed apart in the source
[7] = molecular target: T1, ST2 on the effector cells (KU812, …); assay: cell-based or functional assay; remark: listed apart in the source
[8] = molecular target: T1, ST2 on the effector cells (KU812, …); assay: cell-based or functional assay; remark: listed apart in the source
[9] = molecular target: T1, ST2 on the effector cells (KU812, …); assay: cell-based or functional assay; remark: listed apart in the source
[10] = molecular target: T1, ST2 on the effector cells (KU812, …); assay: cell-based or functional assay; remark: listed apart in the source
[11] = molecular target: Human ST2-fc (human) (UniProt Q01638); assay: competition ELISA, coated ST2-fc, competitor IL33-his; remark: listed apart in the source
[12] = molecular target: T2, Human ST2-his; assay: SPR Biacore X100, ratio of kd at pH 5.5 to kd at pH 7.4
Procedure: (§1) The experiment on the interaction between the anti-human ST2 antibodies and human ST2-his was performed using Biacore X100.
(§2) Each anti-human ST2 antibody was diluted to 2 µg/mL and captured on the surface of a protein A chip for a capture time of 60 s. Following the antibody capture, a solution of human ST2-his (2-fold gradient dilution from a starting concentration of 20 nM, to obtain 6 concentrations in total) was injected. Association was monitored for 180 s and dissociation was monitored for 700 s, and the sensor surface was regenerated by injecting a solution of glycine at pH 2.0. Kinetic data were analyzed using a simple 1:1 binding model.

[13] = molecular target: T2, Human ST2-his; assay: SPR Biacore X100, antibody captured on protein A chip, human ST2-his injected, pH 7.4
In short: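 Antibody (2 µg/mL) captured 60 s on protein A; human ST2-his injected at six 2-fold dilutions from 20 nM, association 180 s, dissociation 700 s. Kinetics fitted to 1:1 binding model; glycine pH 2.0 regeneration.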

[14] = molecular target: T2, Human ST2-his; assay: SPR Biacore X100, antibody captured on protein A chip, human ST2-his injected, dissociation at pH 5.5
Procedure: as §1, §2

IC50, inhibition of KU812-IL5 production promoted by IL-33 (human IL33-his) [5] [µg/mL] | Maximum inhibition rate, KU812-IL5 production by IL-33 [5] [%] | Relative activity compared with CNTO7160, KU812-IL5 production by IL-33 [5] [%] | IC50, inhibition of activation of KU812-NF-κB reporter gene by IL33 [6] [ng/mL] | Maximum inhibition rate, KU812-NF-κB reporter gene [6] [%] | Relative activity compared with CNTO7160, KU812-NF-κB reporter gene [6] [%] | IC50, inhibition of KU812-IL5 production promoted by oxidized IL33 [7] [µg/mL] | Maximum inhibition rate, KU812-IL5 production by oxidized IL33 [7] [%] | Relative activity, KU812-IL5 production by oxidized IL33 [7] [%] | IC50, inhibition of KU812-IL5 production promoted by reduced IL33 [8] [µg/mL] | Maximum inhibition rate, KU812-IL5 production by reduced IL33 [8] [%] | Relative activity, KU812-IL5 production by reduced IL33 [8] [%] | IC50, inhibition of HUVEC-IL6 production promoted by IL33 [9] [µg/mL] | kd ratio of pH 5.5/pH 7.4 [12] | Kd [13] [nM] | koff [13] [s⁻¹] | kon [13] [M⁻¹ s⁻¹] | Kd [14] [nM] | koff [14] [s⁻¹] | kon [14] [M⁻¹ s⁻¹] | other results | Molecule
– | – | – | – | – | – | – | – | – | – | – | – | – | – | – | – | – | – | – | – | Maximum inhibition rate [1]: 92.5%; IC50 (read off the curve) [2]: 1 µg/mL; IC50 (read off the curve) [3]: 0.9 µg/mL | Control antibody CNTO7160
– | – | – | – | – | – | – | – | – | – | – | – | – | – | – | – | – | – | – | – | IC50 (read off the curve) [4]: 3 µg/mL | B1
0.00815 | 97 | 742 | 39.4 | 86.1 | 508 | 0.0136 | 101 | 162 | 0.265 | 86.9 | 554 | 1.64 | 1.57 | 0.097 | 0.000148 | 1.53e+06 | 0.122 | 0.000232 | 1.9e+06 | Maximum inhibition rate, HUVEC-IL6 production by IL33 [9]: 93%; Relative activity, HUVEC-IL6 production by IL33 [9]: 167%; IC50, inhibition of HMC-1 IL8 production promoted by IL33 [10]: 0.0472 µg/mL; Maximum inhibition rate, HMC-1 IL8 production by IL33 [10]: 86.8%; Relative activity, HMC-1 IL8 production by IL33 [10]: 213%; IC50 [11]: 0.553 µg/mL; Maximum inhibition rate [11]: 93.7%; Relative activity compared with CNTO7160 [11]: 228% | B2
– | – | – | – | – | – | – | – | – | – | – | – | – | – | – | – | – | – | – | – | IC50 (read off the curve) [4]: 2 µg/mL | B3
0.0755 | 94.2 | 142 | 55.3 | 88.1 | 362 | 0.0173 | 101 | 127 | 0.522 | 87.2 | 281 | 3.69 | 1.43 | 0.104 | 0.000171 | 1.65e+06 | 0.131 | 0.000245 | 1.87e+06 | Maximum inhibition rate, HUVEC-IL6 production by IL33 [9]: 91.8%; Relative activity, HUVEC-IL6 production by IL33 [9]: 73.9%; IC50, inhibition of HMC-1 IL8 production promoted by IL33 [10]: 0.0944 µg/mL; Maximum inhibition rate, HMC-1 IL8 production by IL33 [10]: 83.3%; Relative activity, HMC-1 IL8 production by IL33 [10]: 107%; IC50 [11]: 0.828 µg/mL; Maximum inhibition rate [11]: 93.7%; Relative activity compared with CNTO7160 [11]: 152% | B4
0.0303 | 99.1 | 201 | 43.8 | 88.2 | 458 | 0.0147 | 101 | 150 | 0.389 | 83.6 | 377 | 0.844 | 0.86 | 0.0997 | 0.000176 | 1.76e+06 | 0.0706 | 0.000152 | 2.15e+06 | Maximum inhibition rate, HUVEC-IL6 production by IL33 [9]: 93%; Relative activity, HUVEC-IL6 production by IL33 [9]: 323%; IC50, inhibition of HMC-1 IL8 production promoted by IL33 [10]: 0.0359 µg/mL; Maximum inhibition rate, HMC-1 IL8 production by IL33 [10]: 87.2%; Relative activity, HMC-1 IL8 production by IL33 [10]: 280%; IC50 [11]: 0.3 µg/mL; Maximum inhibition rate [11]: 94.3%; Relative activity compared with CNTO7160 [11]: 380% | B5
0.0948 | 97.9 | 107 | – | – | – | – | – | – | – | – | – | – | 38.4 | 0.515 | 0.000702 | 1.36e+06 | 2.67 | 0.0269 | 1.01e+07 | IC50 [1]: 0.402 µg/mL; Maximum inhibition rate [1]: 86%; Relative activity compared with CNTO7160 [1]: 219% | B6

— patent US12624112 (MABWELL SHANGHAI BIOSCIENCE, dated 2026)
